Sequences and labels used below:
B1: CPEB3 Ribozyme (parent)
chain: GGGGGCCACAGCAGAAGCGUUCACGUCGCGGCCCCUGUCAGAUUCUGGUGAAUCUGCGAAUUCUGCUGU

The variants in this data set derive from B1. Nature of the data set: self-cleavage, relative activity (ratio to wild type); higher = more cleavage; co-transcriptional.
On to GGGGGCCACAGCAGAAGCGUUCACGUCGCGGCCGCUGUCAGAUUCUGGUGAAUCUGCGAAUUCUGCUCU [C34G G68C], for which the self-cleavage is 0.842.

With GGGGGCCACAGCAGAAGCGUUCACGUCGCGGCCGCUGUCAGAUUCUGGUGAAUCUGCGAAUUCUGCUUU [C34G G68U], the self-cleavage was 0.929.

GGGGGCCACAGCAGAAGCGUUCACGUCGCGGCCGCUUUCAGAUUCUGGUGAAUCUGCGAAUUCUGCUGU [C34G G37U]: the self-cleavage was 0.171.

In the case of GGGGGCCACAGCAGAAGCGUUCACGUCGCGGCCGCUAUCAGAUUCUGGUGAAUCUGCGAAUUCUGCUGU [C34G G37A], the self-cleavage was 0.24.

For the variant GGGGGCCACAGCAGAAGCGUUCACGUCGCGGCCGCUGUCAGAUUCUUGUGAAUCUGCGAAUUCUGCUGU [C34G G47U], the self-cleavage amounted to 0.605.

For the variant GGGGGCCACAGCAGAAGCGUUCACGUCGCGGCCGCUGUCAGAUUCUCGUGAAUCUGCGAAUUCUGCUGU [C34G G47C], the self-cleavage came to 0.724.

In the case of GGGGGCCACAGCAGAAGCGUUCACGUCGCGGCCGCUGUCAGAUUCUAGUGAAUCUGCGAAUUCUGCUGU [C34G G47A], the self-cleavage worked out at 0.769.

With GGGGGCCACAGCAGAAGCGUUCACGUCGCGGCCGCUGUCAGAUUCUGGUCAAUCUGCGAAUUCUGCUGU [C34G G50C], the self-cleavage was found to be 0.64.

Turning to GGGGGCCACAGCAGAAGCGUUCACGUCGCGGCCGCUGUCAGAUUCUGGUUAAUCUGCGAAUUCUGCUGU [C34G G50U], the self-cleavage was determined as 0.839.

Regarding GGGGGCCACAGCAGAAGCGUUCACGUCGCGGCCACUGUCAGAUUCUGGUGAAUCCGCGAAUUCUGCUGU [C34A U55C], the self-cleavage turned out to be 0.264.

On to GGGGGCCACAGCAGAAGCGUUCACGUCGCGGCCACUGUCAGAUUCUGGUGAAUCGGCGAAUUCUGCUGU [C34A U55G], for which the self-cleavage came out at 0.357.

For the variant GGGGGCCACAGCAGAAGCGUUCACGUCGCGGCCGCUGUCAGAUUCUGGUGAAUCUGCGAAUUCUUCUGU [C34G G65U], the self-cleavage was 0.325.

For the variant GGGGGCCACAGCAGAAGCGUUCACGUCGCGGCCGCUGUCAGAUUCUGGUGAAUCUGCGAAUUCUCCUGU [C34G G65C], the self-cleavage is 0.331.

GGGGGCCACAGCAGAAGCGUUCACGUCGCGGCCGCUGUAAGAUUCUGGUGAAUCUGCGAAUUCUGCUGU [C34G C39A]: the self-cleavage was 0.394.

For GGGGGCCACAGCAGAAGCGUUCACGUCGCGGCCACUGUCAGAUUCUGGUGAAUCUGCGAAUUCAGCUGU [C34A U64A], the self-cleavage came out at 0.794.

For GGGGGCCACAGCAGAAGCGUUCACGUCGCGGCCACUGUCAGAUUCUGGUGAAUCUGCGAAUUCCGCUGU [C34A U64C], the self-cleavage was 0.728.

GGGGGCCACAGCAGAAGCGUUCACGUCGCGGCCGCUGUCAGCUUCUGGUGAAUCUGCGAAUUCUGCUGU [C34G A42C]: the self-cleavage worked out at 0.317.

As to GGGGGCCACAGCAGAAGCGUUCACGUCGCGGCCGCUGUCAGAUUCUGGUGAAGCUGCGAAUUCUGCUGU [C34G U53G], the self-cleavage was determined as 0.27.

For the variant GGGGGCCACAGCAGAAGCGUUCACGUCGCGGCCGCUGUCAGAUUCUGGUGAACCUGCGAAUUCUGCUGU [C34G U53C], the self-cleavage came out at 0.562.

On to GGGGGCCACAGCAGAAGCGUUCACGUCGCGGCCGCUGUCAGAUUGUGGUGAAUCUGCGAAUUCUGCUGU [C34G C45G], for which the self-cleavage was 0.604.

In the case of GGGGGCCACAGCAGAAGCGUUCACGUCGCGGCCGCUGUCAGAUUUUGGUGAAUCUGCGAAUUCUGCUGU [C34G C45U], the self-cleavage came to 0.746.

Regarding GGGGGCCACAGCAGAAGCGUUCACGUCGCGGCCGCUGUCAGAUUAUGGUGAAUCUGCGAAUUCUGCUGU [C34G C45A], the self-cleavage was 0.641.

In the case of GGGGGCCACAGCAGAAGCGUUCACGUCGCGGCCGCUGUCAGAUUCUGGUGAAUGUGCGAAUUCUGCUGU [C34G C54G], the self-cleavage was determined as 0.343.

For the variant GGGGGCCACAGCAGAAGCGUUCACGUCGCGGCCGCUGUCAGAUUCUGGUGAAUUUGCGAAUUCUGCUGU [C34G C54U], the self-cleavage came out at 0.708.

Regarding GGGGGCCACAGCAGAAGCGUUCACGUCGCGGCCGCUGUCAGAUUCUGGUGAAUAUGCGAAUUCUGCUGU [C34G C54A], the self-cleavage came to 0.368.

With GGGGGCCACAGCAGAAGCGUUCACGUCGCGGCCGCUGUCAAAUUCUGGUGAAUCUGCGAAUUCUGCUGU [C34G G41A], the self-cleavage was found to be 0.318.

GGGGGCCACAGCAGAAGCGUUCACGUCGCGGCCGCUGUCACAUUCUGGUGAAUCUGCGAAUUCUGCUGU [C34G G41C]: the self-cleavage was 0.296.

Take GGGGGCCACAGCAGAAGCGUUCACGUCGCGGCCGCUGUCAUAUUCUGGUGAAUCUGCGAAUUCUGCUGU [C34G G41U]: the self-cleavage was 0.33.

As to GGGGGCCACAGCAGAAGCGUUCACGUCGCGGCCGCUGUCAGAGUCUGGUGAAUCUGCGAAUUCUGCUGU [C34G U43G], the self-cleavage amounted to 0.383.

As for GGGGGCCACAGCAGAAGCGUUCACGUCGCGGCCGCUGUCAGACUCUGGUGAAUCUGCGAAUUCUGCUGU [C34G U43C], the self-cleavage amounted to 0.547.

As to GGGGGCCACAGCAGAAGCGUUCACGUCGCGGCCGCUGUCGGAUUCUGGUGAAUCUGCGAAUUCUGCUGU [C34G A40G], the self-cleavage was determined as 0.631.

GGGGGCCACAGCAGAAGCGUUCACGUCGCGGCCGCUGUCCGAUUCUGGUGAAUCUGCGAAUUCUGCUGU [C34G A40C]: the self-cleavage came out at 0.326.

For GGGGGCCACAGCAGAAGCGUUCACGUCGCGGCCGCUGUCUGAUUCUGGUGAAUCUGCGAAUUCUGCUGU [C34G A40U], the self-cleavage came out at 0.417.

In the case of GGGGGCCACAGCAGAAGCGUUCACGUCGCGGCCACUGUCAGAUUCUGGUGAAUCUGCGAAUCCUGCUGU [C34A U62C], the self-cleavage was 0.358.

GGGGGCCACAGCAGAAGCGUUCACGUCGCGGCCACUGUCAGAUUCUGGUGAAUCUGCGAAUACUGCUGU [C34A U62A]: the self-cleavage was 0.602.

Take GGGGGCCACAGCAGAAGCGUUCACGUCGCGGCCACUGUCAGAUUCUGGUGAAUCUGCGAAUGCUGCUGU [C34A U62G]: the self-cleavage is 0.434.

For the variant GGGGGCCACAGCAGAAGCGUUCACGUCGCGGCCGUUGUCAGAUUCUGGUGAAUCUGCGAAUUCUGCUGU [C34G C35U], the self-cleavage was 0.29.

In the case of GGGGGCCACAGCAGAAGCGUUCACGUCGCGGCCGAUGUCAGAUUCUGGUGAAUCUGCGAAUUCUGCUGU [C34G C35A], the self-cleavage is 0.196.

As for GGGGGCCACAGCAGAAGCGUUCACGUCGCGGCCGGUGUCAGAUUCUGGUGAAUCUGCGAAUUCUGCUGU [C34G C35G], the self-cleavage turned out to be 0.244.

For the origin of these results see the RNAGym collection of RNA variant scans (doi:10.7554/elife.80360).
